From patent US20240417484A1, “ANTIGEN-BINDING POLYPEPTIDES AGAINST CD73” (UNIVERSITÄTSKLINIKUM HAMBURG-EPPENDORF, priority 2021, published 2024) come the findings set out here.

The target in assay [1] is T1, human CD73-transfected HEK cells (Homo sapiens, UniProt P21589).
T1 construct: expressed in transfected cells; stably transfected in method 5.1)
T1 sequence (P21589 27-549): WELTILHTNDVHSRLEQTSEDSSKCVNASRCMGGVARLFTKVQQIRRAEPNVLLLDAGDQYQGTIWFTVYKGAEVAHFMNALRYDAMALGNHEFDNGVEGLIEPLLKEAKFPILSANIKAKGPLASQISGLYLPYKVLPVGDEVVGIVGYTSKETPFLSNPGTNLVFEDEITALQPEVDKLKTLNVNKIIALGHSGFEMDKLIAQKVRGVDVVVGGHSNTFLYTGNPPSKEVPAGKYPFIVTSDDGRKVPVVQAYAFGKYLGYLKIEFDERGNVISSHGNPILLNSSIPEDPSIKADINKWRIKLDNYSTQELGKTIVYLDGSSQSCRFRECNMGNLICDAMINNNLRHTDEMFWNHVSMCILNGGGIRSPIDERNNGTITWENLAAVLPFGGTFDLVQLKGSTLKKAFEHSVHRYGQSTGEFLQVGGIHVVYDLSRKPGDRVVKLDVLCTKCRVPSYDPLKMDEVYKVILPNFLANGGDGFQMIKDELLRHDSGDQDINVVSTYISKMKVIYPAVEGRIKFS
As to the kind of experiment: Epitope binning by flow cytometry (human IgG hcAb blocks rabbit IgG hcAb). The assay is classed as binding. To be noted: epitope assignment on human CD73 from binning. The protocol:
(§1) • 5.1 Untransfected HEK293 cells and HEK293 cells stably transfected with human or mouse CD73 were incubated for 30 min with HEK-6E cell supernatants containing rabbit IgG hcAbs (diluted 1:10 in PBS/0.1% BSA). Following washing with PBS/0.1% BSA, bound antibodies were detected with PE-conjugated goat anti-rabbit IgG polyclonal antibody (711-116-152 Dianova, Hamburg). • 5.2 For dissociation analyses, two separate aliquots of CD73-transfected cells were incubated either with Cell Proliferation Dye eFluor 450 (eBioscience) or with hcAbs for 20 min at RT. Cells were washed four times, mixed at a 1:1 ratio and further incubated at RT for 120 min before staining of bound antibodies with PE-conjugated goat anti-rabbit IgG polyclonal antibody. The dissociation of hcAbs from the target cells and association with the eFluor 450 labeled cells was analyzed by flow cytometry using the FlowJo software (Treestar). • 5.3 For epitope analyses, cells were preincubated with excess human IgG hcAbs (10 μl HEK-6E cell supernatant/100 μl PBS/0.1% BSA) for 30 min at RT before addition of Nb-rabbit IgG hcAbs (1 μl HEK-6E cell supernatant/100 μl PBS/0.1% BSA) and further incubation for 20 min at RT and staining with PE-conjugated anti-rabbit polyclonal antibody (711-116-152 Dianova, Hamburg). Cells were washed and analyzed by flow cytometry on a BD-FACS Canto. Data were analyzed using the FlowJo software (Treestar).
To evaluate the epitopes on the CD73 protein recognized by different VHHs, representative rabbit IgG hcAbs were binned against a set of human IgG hcAbs, and bound hcAbs were detected with a PE-conjugated anti-rabbit IgG secondary antibody. Cells were pre-incubated with excess human IgG hcAbs for […] at RT to block specific epitopes before addition of rabbit IgG hcAbs as detectors and further incubation for 15 min at RT. Cells were washed, and bound antibodies were detected with PE-conjugated anti-rabbit IgG polyclonal antibody. Cells were washed and analyzed by flow cytometry on a BD-FACS Canto. Data were analyzed using the FlowJo software (Treestar). Lack of blockade by a non-binding control human IgG hcAb served as negative control (unblocked), and blockade of binding with the same VHH carrying human IgG hcAb as the rabbit IgG hcAb used for detection served as positive controls for blocking. Values for blocking were determined by comparing the mean fluorescence intensities (MFIs) of PE staining of transfected cells for unblocked vs blocked rabbit hcAbs using the formula: inhibition (%)=100−(MFI (blocked)/MFI MFI(unblocked)*100). The values were rounded to whole percentages.
A general note: Flow cytometry measures light scatter and fluorescence of single cells or particles in a stream.

Assay [2] has as its target T2, soluble human CD73 (Homo sapiens, UniProt P21589).
T2 construct: The ectodomain of CD73 (aa 27-549) was expressed as a recombinant protein with a C-terminal His6× tag; His6 (C); made in house; host or cells: transiently transfected HEK cells
T2 sequence (P21589 27-549): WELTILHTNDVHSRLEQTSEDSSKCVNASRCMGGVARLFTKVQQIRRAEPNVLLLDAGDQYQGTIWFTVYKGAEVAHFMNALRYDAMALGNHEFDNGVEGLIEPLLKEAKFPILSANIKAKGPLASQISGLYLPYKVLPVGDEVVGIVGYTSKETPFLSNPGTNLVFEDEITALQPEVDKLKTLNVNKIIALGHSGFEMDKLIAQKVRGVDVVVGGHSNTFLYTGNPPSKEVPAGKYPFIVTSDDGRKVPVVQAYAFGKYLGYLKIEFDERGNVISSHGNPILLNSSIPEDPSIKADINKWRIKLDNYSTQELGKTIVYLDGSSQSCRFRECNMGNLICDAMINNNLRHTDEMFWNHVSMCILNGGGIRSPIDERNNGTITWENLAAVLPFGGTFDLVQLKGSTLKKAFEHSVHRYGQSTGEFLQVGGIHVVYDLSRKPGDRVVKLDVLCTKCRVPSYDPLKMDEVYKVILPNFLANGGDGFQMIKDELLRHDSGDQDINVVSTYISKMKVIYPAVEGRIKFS
Description: Off-rates of soluble CD73 from immobilized Nb-rbIgG hcAb on Octet BLI. The assay is classed as binding. To be noted: soluble human CD73 ectodomain 200 ng/μl as analyte; Nb-rbIgG hcAb immobilized on protein A biosensor. Here is the method:
The binding off-rate constants of bivalent hcAbs to human and mouse CD73 protein were determined by […] kinetic analysis on Octet RED96 (ForteBio). Immobilization of rabbit IgG hcAbs on the protein A-biosensor surface was done in HEK-6E cell supernatant, and regeneration of analytes was done with 100 mM Glycin pH=2.5. Recombinant mouse or human CD73 ectodomain was used as analytes and tested at a saturating dose of 200 ng/μl. Sensorgrams were fitted using least square regression in association than dissociation Model in Prism8 (Graphpad).
In general terms: BLI is a label-free optical method that tracks binding on a fibre tip over time.

Assay [3] has as its target T2, soluble human CD73. As to the kind of experiment: AMP hydrolysis by soluble CD73, DPEA-Napht-Azide fluorescence assay. The assay is classed as biochemical. To be noted: 50 ng CD73, 30 min pre-incubation with 10 μl hcAb supernatant, 1 mM AMP. The protocol:
Recombinant human CD73 (50 ng) was pre-incubated for 30 min with hcAbs at RT in 96 well plates before addition of AMP and DPEA-Napht-Azide. Fluorescence signals were detected every 50 seconds for 30 repeats. ARFU values (>10^3/min) were calculated for a 10 min interval during the linear phase (from 5 min to 15 min) using Prism software (Graphpad). A non-specific rabbit IgG hcAb was used as control.
• 4.1 CD73 catalyzes the hydrolysis of AMP to adenosine. This reaction can be monitored by the shift in fluorescence intensity of DPEA-Napht-Azide. This property was used to determine whether hcAbs could interfere with the enzymatic activity of CD73. Soluble recombinant human CD73 (50 ng) was pre-incubated for 30 min with Nbs or hcAbs (10 μl HEK-6E cell supernatant containing 10-100 μg/ml hcAb) at RT in 96 well plates before addition of AMP (Sigma) to a final concentration of 1 mM and of DPEA-Napht-Azide to a final concentration of 50 μM. • 4.2 Fluorescence signals were recorded in white Nunc MicroWell plates (Nunc, 136101) on a Victor III plate reader (Perkin Elmer) (Exicitation filter: F485, Emission Filter: F535; CW-Lamp energy: 40000, counting time: 0.1 s). Data analyses were performed using Prism (Graphpad).
Soluble recombinant human CD73 (50 ng) was pre-incubated for 30 min with CD73-specific hcAbs or an irrelevant control hcAb (10 μl HEK-6E cell supernatant) at RT in 96 well plates before addition of AMP (Sigma) to a final concentration of 1 mM and of DPEA-Napht-Azide to a final concentration of 50 μM. Fluorescence signals were detected every 50 seconds for 30 repeats. Data analyses were performed using Prism (Graphpad).

The target of assay [4] is T3, human CD73 (Homo sapiens, UniProt P21589).
T3 construct: expressed in transfected cells; stably transfected in method 5.1)
T3 sequence (P21589 27-549): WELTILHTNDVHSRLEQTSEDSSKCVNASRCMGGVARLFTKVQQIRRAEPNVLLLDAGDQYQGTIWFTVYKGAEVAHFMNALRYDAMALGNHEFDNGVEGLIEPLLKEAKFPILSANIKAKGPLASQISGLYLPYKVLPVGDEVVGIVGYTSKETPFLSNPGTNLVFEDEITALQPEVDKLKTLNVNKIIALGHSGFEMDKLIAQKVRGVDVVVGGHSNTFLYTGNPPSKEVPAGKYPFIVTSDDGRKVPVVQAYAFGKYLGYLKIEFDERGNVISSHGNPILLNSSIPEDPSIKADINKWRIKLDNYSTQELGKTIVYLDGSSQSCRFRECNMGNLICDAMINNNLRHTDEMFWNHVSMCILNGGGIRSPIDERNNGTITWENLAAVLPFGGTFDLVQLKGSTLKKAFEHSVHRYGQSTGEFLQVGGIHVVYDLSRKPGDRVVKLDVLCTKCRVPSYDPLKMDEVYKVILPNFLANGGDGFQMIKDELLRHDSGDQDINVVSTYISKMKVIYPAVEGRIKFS
As to the kind of experiment: Flow cytometry binding of rabbit IgG hcAbs to human CD73-transfected HEK cells. To be noted: family representative clone; h = binds human CD73, m = binds mouse CD73. The protocol: HEK cells were co-transfected with expression vectors for green fluorescent protein (GFP) and human CD73, mouse CD73, and a control cell surface protein (CD39). 48 h after transfection, cells were incubated with HEK cell supernatants containing the indicated rabbit IgG hcAbs. Bound antibodies were detected with PE-conjugated anti rabbit IgG secondary antibody.
as §1
The binding specificities of the purified hcAbs were determined by flow cytometry using HEK cells transiently co-transfected with expression vectors for GFP and either mouse CD73, human CD73 or a control protein (CD39). 1×10^6 cells were incubated with 10 μl of the Nb-rbIgG hcAb containing HEK-6E cell supernatants for 30 min at 4° C. After washing, the cells were incubated with PE-conjugated anti-rabbit IgG polyclonal antibody (711-116-152 Dianova, Hamburg) and washed twice. The cells were resuspended in PBS and analyzed by flow cytometry on FACS Canto or FACS Celesta (BD Biosciences, Heidelberg). Data evaluation was conducted using the software FlowJo (Treestar, Stanford, US).

B1: SB141: CD73-specific alpaca VHH clone, family 2 in Tables 2-3, SEQ ID NO:72; tested as rabbit or human IgG hcAb (antibody)
heavy: QVQLVESGGGLVQPGGSLRLSCAASGFTFINYHMSWLRQAPGKGLEWVSEIHSRGDITSYTNSVKGRFTISRDNAKNTLYLQMNSLKFDDTAVYYCARSRDLFNEGEYDYWGRGTQVTVSS
modifications: left off: a dimerising Fc or GST
notes: tested as rabbit or human IgG hcAb
The molecule B1 returned an Epitope in assay [1] of 2. The same molecule yielded a Kdis in assay [2] of 0.00045 s⁻¹. For the same molecule, the “effect on hydrolysis of AMP by soluble CD73” value in assay [3] is listed as “did not”.

B2: SB116: CD73-specific alpaca VHH clone, family 3, SEQ ID NO:81; tested as rabbit or human IgG hcAb (antibody)
heavy: QVKLQESGGGRVQTGGSLRLSCAASGISFSITTMYWYRQAPGEQRQLVALITDRGNTYYVDSVKGRFTISRDDSKNTVYLQMNDLKPEDTAVYFCNSIPGNDWGQGTQVTVSS
modifications: left off: a dimerising Fc or GST
notes: as for B1
Molecule B2 had an Epitope in assay [1] of 1. In addition, the Kdis in assay [2] turned out to be 0.00017 s⁻¹. Also, in assay [3], the “effect on hydrolysis of AMP by soluble CD73” value was “effectively blocked hydrolysis of AMP”. Also, the specificity result in assay [4] is given as “h + m”.

B3: SB121: CD73-specific alpaca VHH clone, family 5, SEQ ID NO:82; tested as rabbit or human IgG hcAb (antibody)
heavy: QVQLQESGGGLVQAGGSLRLSCAASGSIGSIIAMGWYRQGPGKQRELVARMFTDDGSTNYDDSVKGRFTISRDSAGTTVYLQMNSLKPEDTAVYYCNAQRRWNAYWGPGTQVTVSS
modifications: left off: a dimerising Fc or GST
notes: as for B1
B3 displayed an Epitope in assay [1] of 4. The same molecule showed a Kdis in assay [2] of 0.022 s⁻¹. In addition, in assay [4], the specificity result is on record as “h + m”.
